Experimental data taken from patent US20200325237A1 (AVIDITY BIOSCIENCES, published 2020).
Like-named read-outs stand apart in the source and are kept apart here.

Key:
[1] = biological target: T1, recombinant human transferrin receptor protein (Sino Biological 11020-H07H) (human, UniProt P02786 89-760); assay: ELISA on plate-coated recombinant human TfR1; fit: specific binding with Hill slope
T1 construct: Bought protein coated on ELISA plates; also called recombinant human TfR1; human TfR1
Procedure: (§1) 100 μL of Superblock (ThermoFisher PI-37535) was added to each well and incubated for 1 hour at room temperature. The wash step was repeated before the addition of the samples. Samples were added at concentrations up to 10 nM, 50 μL/well. Plates were incubated for another hour at room temp and wash step repeated. Secondary antibody (Peroxidase AffiniPure Goat Anti-Human IgG, Fcγ Fragment Specific, Jackson Immunoresearch, 109-035-098) was diluted 1:5000 in Superblock and 50 μL/well added. Plates were incubated for 1 hour at room temperature and washed one more time. Binding was measured by the addition of 50 μL of 1-Step™ Ultra TMB-ELISA (ThermoFisher, 34028), incubated for 5 minutes, and the reaction was stopped with the addition of 25 μL of Stop Solution 2N sulfuric Acid (R&D Systems DY994). Absorbance was measured at 450 nm, with reference wavelength 570 nm subtracted. Binding constants were determined using GraphPad Prism Specific Binding with Hill Slope.
(§2) Half-well high-binding 96-well plates (Costar #3690) were coated with recombinant human transferrin receptor protein (Sino Biological 11020-H07H) or recombinant cyno transferrin receptor protein (Sino Biological 90253-C07H) at 1 ng/μL in PBS (Gibco 14190) and incubated overnight at 4° C. […] Absorbance was measured at 450 nm, with reference wavelength 570 nm subtracted. […]

[2] = biological target: T2, recombinant cyno transferrin receptor protein (Sino Biological 90253-C07H) (cyno, UniProt H9EXL1 89-760 (rhesus entry)); assay: ELISA on plate-coated recombinant cyno TfR1 (CD71); fit: specific binding with Hill slope
T2 construct: Bought protein coated on ELISA plates; also called recombinant cyno TfR1; cynoTfR1
Procedure: as §1, §2

[3] = biological target: T1, recombinant human transferrin receptor …; assay: ELISA on plate-coated recombinant human TfR1 (CD71); fit: specific binding with Hill slope (row labels blank in the lower block; row taken by the order Bmax, h, Kd)
Procedure: as §1, with “Half-well high-binding 96-well plates (Costar #3690) were coated with recombinant human transferrin receptor protein (Sino Biological 11020-H07H) or recombinant cyno transferrin receptor protein (Sino Biological 90253-C07H) at 1 ng/μL in PBS (Gibco 14190) and incubated overnight at 4° C. Plates were washed four times with 100 μL of Tris buffered saline+Tween (20×TBST, Cell Signaling 9997S). 100” for “100”

[4] = biological target: T3, hTfR (human transferrin receptor, source and construct not stated) (human, UniProt P02786 89-760, limits assumed); assay: ELISA, biotinylated antibody on hTfR captured by plate-coated HFE (HFE+TfR); fit: specific binding with Hill slope
[5] = biological target: T3, hTfR (human transferrin receptor, …); assay: ELISA; ratio of the Kd on HFE-captured hTfR to the Kd on directly coated hTfR
[6] = biological target: T3, hTfR (human transferrin receptor, …); assay: ELISA, biotinylated antibody on hTfR captured by plate-coated HFE (HFE+TfR)
[7] = biological target: T4, TfR2 (transferrin receptor 2) (UniProt Q9UP52 105-801, limits assumed); assay: A450 plate assay on TfR2 (method not described in the text)
T4 sequence (looked up): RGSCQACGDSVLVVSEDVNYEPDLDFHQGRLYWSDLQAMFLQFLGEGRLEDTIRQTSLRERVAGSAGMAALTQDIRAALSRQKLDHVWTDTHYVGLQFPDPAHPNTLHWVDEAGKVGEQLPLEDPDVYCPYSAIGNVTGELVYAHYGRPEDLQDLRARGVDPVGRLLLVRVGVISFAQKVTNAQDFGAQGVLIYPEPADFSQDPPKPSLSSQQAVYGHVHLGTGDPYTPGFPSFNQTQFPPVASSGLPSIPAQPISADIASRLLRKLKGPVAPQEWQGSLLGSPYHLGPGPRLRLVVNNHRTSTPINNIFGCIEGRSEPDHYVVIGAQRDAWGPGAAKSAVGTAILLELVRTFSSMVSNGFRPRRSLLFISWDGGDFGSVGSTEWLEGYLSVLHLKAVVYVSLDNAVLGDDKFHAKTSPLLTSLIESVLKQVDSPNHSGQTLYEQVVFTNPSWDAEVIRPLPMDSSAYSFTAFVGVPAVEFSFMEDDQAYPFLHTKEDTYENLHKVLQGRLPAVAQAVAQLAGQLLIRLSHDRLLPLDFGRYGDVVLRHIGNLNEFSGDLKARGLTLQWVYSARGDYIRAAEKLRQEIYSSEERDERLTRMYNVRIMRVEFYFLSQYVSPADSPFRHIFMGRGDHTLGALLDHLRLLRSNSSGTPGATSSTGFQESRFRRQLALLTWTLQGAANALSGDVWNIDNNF

[8] = biological target: T2, recombinant cyno transferrin receptor …; assay: ELISA on plate-coated recombinant cyno TfR1 (CD71); fit: specific binding with Hill slope; remark: listed apart in the source
Procedure: as §1, with “Half-well high-binding 96-well plates (Costar #3690) were coated with recombinant human transferrin receptor protein (Sino Biological 11020-H07H) or recombinant cyno transferrin receptor protein (Sino Biological 90253-C07H) at 1 ng/μL in PBS (Gibco 14190) and incubated overnight at 4° C. Plates were washed four times with 100 μL of Tris buffered saline+Tween (20×TBST, Cell Signaling 9997S). 100” for “100”

[9] = biological target: T3, hTfR (human transferrin receptor, …); assay: ELISA; ratio of the Kd on transferrin-captured hTfR to the Kd on directly coated hTfR
Procedure: (§3) Antibodies were biotinylated using 50 fold molar excess of EZ-Link No weigh NHS-Biotin (Thermo Scientific A39256) following manufacturer's instructions. Half-well high-bind plates (Costar #3690) were coated with 500 ng/mL purified human holo-transferrin (R&D Systems 2914-HT) in PBS at 4° C. overnight. For comparison, plates were coated directly with hTfR. Plates were washed four times with 100 μL of Tris buffered saline+Tween (20×TBST, Cell Signaling 9997S). 100 μL of Superblock (ThermoFisher PI-37535) was added to each well and incubated for 1 hour at room temperature. The wash step was repeated before the addition of the hTfR (200 ng/mL in 25 μl) to the transferrin plates, or Superblock to the hTfR plates, and incubated for 30 minutes. Biotinylated antibodies were diluted to 20 nM for the high concentration and added to the plates with 3-fold serial dilution. 25 μl/well was added to the 25 μl already in the plate. Plates were incubated for 1 hour, and wash step was repeated. Streptavidin-HRP (R&D Systems DY998) was added following recommended dilution on the package insert, and a final wash step was done. Binding was measured by the addition of 50 μL of 1-Step™ Ultra TMB-ELISA (ThermoFisher, 34028), incubated for 5 minutes, and the reaction was stopped with the addition of 25 μL of Stop Solution 2N sulfuric Acid (R&D Systems DY994). Absorbance was measured at 450 nm, with reference wavelength 570 nm subtracted. Binding constants were determined using GraphPad Prism Specific Binding with Hill Slope. Change in antibody binding constants in the presence versus absense of transferrin is considered relative to the commercially available antibody which is known to have an overlapping epitope with transferrin (AF2474, R&D Systems).

[10] = biological target: T3, hTfR (human transferrin receptor, …); assay: ELISA, biotinylated antibody on hTfR captured by plate-coated human holo-transferrin (Tf+TfR); fit: specific binding with Hill slope
Procedure: as §3

[11] = biological target: T3, hTfR (human transferrin receptor, …); assay: SPR (BioRad ProteOn XPR36), mAb captured on Protein A, hTfR as analyte, 25 C
Procedure: The binding kinetics of nine exemplary humanized anti-TfR antibodies and the parent chimeric antibody were characterized. Studies were run on a BioRad ProteOn XPR36 optical biosensor using a GLM sensor chip coated with Protein A for mAb capture. Running buffer included 10 mM EPES, 150 mM NaCl, pH 7.4 with 0.05 tween-20 with 0.2 mg/ml BSA. Data were collected at 25 degrees C. All mAbs were diluted into running buffer to 2 ug/ml based on the stock concentration provided. Each was then captured for 40 seconds over a Protein A surface.
hTfR (100 ug) was dissolved into […] of water to yield a 4.3 uM stock concentration. hTfR was dilted to 43 nM as the highest concentration and tested in a 3 fold dilution series. hTfR was injected at 200 ul/min for 2 minutes followed by a one-hour dissociation phase.

T2 sequence (chain, as listed by the source C07H C07H): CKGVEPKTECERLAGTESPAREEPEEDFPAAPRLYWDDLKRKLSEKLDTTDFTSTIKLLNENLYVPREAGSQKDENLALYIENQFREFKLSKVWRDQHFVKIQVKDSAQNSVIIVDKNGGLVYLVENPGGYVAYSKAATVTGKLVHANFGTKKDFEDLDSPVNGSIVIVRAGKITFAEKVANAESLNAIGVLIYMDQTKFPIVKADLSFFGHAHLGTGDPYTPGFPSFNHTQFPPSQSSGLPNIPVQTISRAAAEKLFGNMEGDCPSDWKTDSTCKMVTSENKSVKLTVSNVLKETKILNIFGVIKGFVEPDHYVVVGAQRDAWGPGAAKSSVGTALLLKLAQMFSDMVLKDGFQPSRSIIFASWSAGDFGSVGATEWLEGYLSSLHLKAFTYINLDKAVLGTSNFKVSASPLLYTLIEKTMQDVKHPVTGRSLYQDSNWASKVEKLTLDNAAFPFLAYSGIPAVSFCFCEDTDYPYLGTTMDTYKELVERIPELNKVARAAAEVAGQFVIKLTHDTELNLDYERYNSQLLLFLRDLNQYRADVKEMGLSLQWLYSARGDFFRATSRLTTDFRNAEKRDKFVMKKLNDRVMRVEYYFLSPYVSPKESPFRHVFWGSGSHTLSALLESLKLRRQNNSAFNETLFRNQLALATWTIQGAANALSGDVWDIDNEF
T1 sequence (P02786 89-760 limits assumed): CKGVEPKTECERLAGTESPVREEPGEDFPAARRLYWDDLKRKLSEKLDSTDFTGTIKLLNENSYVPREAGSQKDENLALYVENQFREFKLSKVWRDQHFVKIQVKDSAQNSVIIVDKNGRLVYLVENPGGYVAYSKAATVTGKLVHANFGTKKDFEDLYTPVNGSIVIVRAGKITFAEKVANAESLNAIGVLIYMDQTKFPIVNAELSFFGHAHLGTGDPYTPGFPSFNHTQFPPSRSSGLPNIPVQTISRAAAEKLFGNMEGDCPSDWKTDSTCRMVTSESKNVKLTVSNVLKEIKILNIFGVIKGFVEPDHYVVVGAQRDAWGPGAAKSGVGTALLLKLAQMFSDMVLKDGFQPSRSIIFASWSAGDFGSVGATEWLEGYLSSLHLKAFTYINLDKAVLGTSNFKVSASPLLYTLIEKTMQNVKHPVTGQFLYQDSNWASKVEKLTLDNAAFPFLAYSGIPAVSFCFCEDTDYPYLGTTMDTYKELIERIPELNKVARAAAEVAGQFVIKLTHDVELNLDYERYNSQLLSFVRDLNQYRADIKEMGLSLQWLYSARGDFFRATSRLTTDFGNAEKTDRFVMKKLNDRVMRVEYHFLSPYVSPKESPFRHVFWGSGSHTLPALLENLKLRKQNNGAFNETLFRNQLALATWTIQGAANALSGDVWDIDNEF
T3 sequence (P02786 89-760 limits assumed): as above

B1: hTfR1.IgG2 mAb (chimeric human IgG2 anti-hTfR1 antibody) (antibody, V domains shown)
VH: QVQLQQPGAELVKPGASVKLSCKASGYTFTNYWMHWVKQRPGQGLEWIGEINPINGRSNYGERFKTKATLTVDKSSSTAYMQLSSLTSEDSAVYYCARGTRAMHYWGQGTSVTVSS
VL: DIQMTQSPASLSVSVGETVTITCRTSENIYNNLAWYQQKQGKSPQLLVYAATNLADGVPSRFSGSGSGTQYSLKINSLQSEDFGNYYCQHFWGTPLTFGAGTKLELKR
notes: The heavy variable region is printed there only as images; also called hTfRL.IgG2 mAb; TfR1-IgG2 mAb chimera
Q: Which results are given for B1?
A: Kd [1]: 0.00322 nM; Kd [2]: 0.00487 nM

B2: 13E4-Variant 15iii (antibody, human IgG1, kappa, L234A L235A)
heavy: QVQLVQSGAEVKKPGASVKVSCKASGYTFTNYWMHWVRQAPGQGLEWMGEINPIQGRSNYAEKFQGRVTLTVDTSSSTAYMELSSLRSEDTATYYCARGTRAMHYWGQGTLVTVSSASTKGPSVFPLAPSSKSTSGGTAALGCLVKDYFPEPVTVSWNSGALTSGVHTFPAVLQSSGLYSLSSVVTVPSSSLGTQTYICNVNHKPSNTKVDKRVEPKSCDKTHTCPPCPAPEAAGGPSVFLFPPKPKDTLMISRTPEVTCVVVDVSHEDPEVKFNWYVDGVEVHNAKTKPREEQYNSTYRVVSVLTVLHQDWLNGKEYKCKVSNKARPAPIEKTISKAKGQPREPQVYTLPPSREEMTKNQVSLTCLVKGFYPSDIAVEWESNGQPENNYKTTPPVLDSDGSFFLYSKLTVDKSRWQQGNVFSCSVMHEALHNHYTQKSLSLSPG
light: DIQMTQSPSSLSASVGDRVTITCRTSENIYSNLAWYQQKPGKAPKLLIYAGTNLADGVPSRFSGSGSGTDYTLTISSLQPEDFANYYCQHFWGTPLTFGGGTKVEIKRTVAAPSVFIFPPSDEQLKSGTASVVCLLNNFYPREAKVQWKVDNALQSGNSQESVTEQDSKDSTYSLSSTLTLSKADYEKHKVYACEVTHQGLSSPVTKSFNRGEC
notes: Humanized hIgG1 with Fc mutations; also called hIgG1 TfR-Var15iii
Q: How did the Bmax [3] turn out when B2 was run?
A: 96.5 % max binding

Q: And the Kd [3]?
A: 0.0063 nM

Q: What about the h [3] of the same binder?
A: 1.35

Q: What about the Bmax [4] of the same binder?
A: 1.81 A450

Q: And the Kd [4]?
A: 0.213 nM

Q: And the h [4]?
A: 1.45

Q: What about the “Kd(HFE+TfR)/Kd(TfR)” value [5] of the same binder?
A: 8.5

Q: And the “EC50 (read off the curve)” value [6]?
A: ~0.2 nM

Q: Does B2 bind [7]?
A: no binding (tested: 1000 nM)

Q: What about the Bmax [8] of the same binder?
A: 96.4 % max binding

Q: And the Kd [8]?
A: 0.0103 nM

Q: And the h [8]?
A: 1.54

Q: What about the “Kd(Tf+TfR)/Kd(TfR)” value [9] of the same binder?
A: 2.4

Q: What about the Bmax [10] of the same binder?
A: 3.5 A450

Q: What about the Kd [10] of the same binder?
A: 0.0604 nM

Q: And the h [10]?
A: 1.52

Q: What about the Kd [11] of the same binder?
A: 0.00999 nM

Q: And the koff [11]?
A: 6.94e-06 s⁻¹

Q: And the kon [11]?
A: 695000 M⁻¹ s⁻¹
